Experimental findings from the RNAGym collection of RNA variant scans (doi:10.1073/pnas.2313332121) are described below.

B1: TPR t1 (parent)
chain: GACCAAUCUGCCCUCAGAGCUCGAGAACAUCUUCGGAUGCAGAGGAGGCAGGCUUCGGUGGCGCGAUAGCGCCAACGUCCUCAACCUCCAAUGCAUCCCACCACAUGAUGAUGCCUGAAGAGCCUUGGUUUUUUG

In this data set the parent is B1. As to the kind of experiment: polymerase ribozyme fitness, log enrichment relative to wild type (log ratio); higher = more active; in vitro selection for triplet polymerase activity. The procedure, abridged: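 For each subunit of a heterodimeric triplet polymerase ribozyme, a mutant library was built by PCR and transcribed, then taken through a single in vitro selection round in triplicate. Selection involved annealing to a biotinylated primer, the partner subunit and triplets, incubation frozen at −7 °C, gel excision of extended constructs, capture on streptavidin beads and RT-PCR. Genotypes were retained after Illumina sequencing of inputs and outputs only with ≥10 input reads and ≥1 read in each output. Fitness is defined as the logarithm of a genotype's enrichment relative to wild-type enrichment, using inverse-variance-weighted averages across replicates, with the logarithm taken to base 2.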
As for GACCAAGCUGCCCUCAGAGCUCGAGAACAUCUUCGGAUGCAGAGGCGGCAGGCUUCGGUGGCGCGAUAGCGCCAACGUCCUCAACCUCCAAUGCAUUCCACCACAUGAUGAUGCCUGAAUAGCCUUUGUUUUUUG, the “polymerase ribozyme fitness (log ratio)” value was 0.436.

With GACCAAGCUGCCCUCAGAGCUCGAGAACAUCUUCGGAUGCAGUGGAGUCAGGCUUCGGUCGCGCGAUAGCGCCAACGUCCUCAACCUCCAAUGCAUCCCACCACAUGAUGAUGCAUGAAGAGCCUAGGUUUUUUG, the “polymerase ribozyme fitness (log ratio)” value was -3.03.

For GACCAACCUGCCCUCAGAGCUCGAGAACAUCUUCGGAUGCAGAGUAGGCAGGCUUCGGUGGCGCGAUAGCGCCAACGUCCUCAACCUCCAAUGCAUCCCACCACAUGAUCAUGCCUGAAGAGCCUUGGUUUUUUG, the “polymerase ribozyme fitness (log ratio)” value was -5.16.

Take GACCAACCUGCCCUCAGAGCCCGAGAACAUCUUCGGAUGCAGAGGAGGCAGGCUUCGGUGGCGCGAUAGCGCCAACGUCCUCGACCUCCAAUGCAUCCCACCACAUGAUGAUGCCUGAAAAGCCUUGGUUUUUUG: the “polymerase ribozyme fitness (log ratio)” value was found to be 0.428.

For GACCAAGCUGCCCUCAGAGCUCGAGAUCAUCUUCGGAUGCAGAGGAGACAGGCUUCGGUGGCGCGAUAGCGCCAACGUCCUCAACCUCCAAUGCAUCCCACCACAUGAUGAAGCCUGAAGAGCCUUGGUUUUUUG, the “polymerase ribozyme fitness (log ratio)” value was -1.8.

On to GACCAACCUGCCCUCAGAGCUCGAGAACAUCUUCGGAUGCAGAGGAGGCAGGCUUCGGUGUCGCGAUAGCGCCAACGUCCUCAACCUCCAAUGCAUCCCACCACAUGAUGAUGCCUGAAGAGCCUUGGUUUUUUG, for which the “polymerase ribozyme fitness (log ratio)” value came out at 0.179.

GACCAACCUGCCCUCAGAGCUCGAGAACAUCUUCGGAUGCAGAGGAGGCAGGCUUCGGUGGCGCGAUAGCGCCAACGUCCUCAACCUCCAAUACAUCCCACCACAUGAUGAUGCCUGAAGAGCCUUGGUUUUUUG: the “polymerase ribozyme fitness (log ratio)” value was -1.65.

Turning to GACCAAGCUGCCCUCCGAGCUCGAGAACAUCUUCGGAUGCAGAGGAGGCAGGCUUCGGUGGCGCGAUAGCGCCAACGUCCUCAACCUCCAAUGCAUCCCACCACAUGAUGAUGCCUGAAGAGCCUUGGUUUUUUG, the “polymerase ribozyme fitness (log ratio)” value was -1.37.

With GACCAACCUGCCCUCAGAGCUCGAGAACAUCUUCGGAUGCAGAGGAGGCAGGCUUCGGUGGCGCGAUAGCGCCAACGUCCUCAACCCCCAAGGCAUCCCACCACAUGAUGAUGCCUGAAGAAUCUUGGUUUUUUG, the “polymerase ribozyme fitness (log ratio)” value is -1.22.

As to GACCAACCGGCCCUCAGAGCUCGAGGACAUCUUCGGAUGCAGAGGAGGCAGGCUUCGGUGGCGCGAUAGCGACAACGUCCUCAACCUCCAAUGCAUCCCACCACAUGAUGAUGCCUGAAGAGCCUUGGUUUUUUG, the “polymerase ribozyme fitness (log ratio)” value was -1.08.

For GACCAACCUGCCCUCAGAGCUCGAGAACAUCUUCGGAUGCAGAGGAGGCAGGCUUCGGUGGCGCGAUAGCGCCAACGUCCUCAACCUCCAAUGCAUCCCACCACAUGAUGAUGCCUGAAGAGCCUUGGUUUUUUC, the “polymerase ribozyme fitness (log ratio)” value is -0.63.

As for GACCAAGAUGCCCUCAGAGCUCGAGAACAUCUUCGGAUGCAGAGGAGGCAGGCUUCGGUGGCGCGAUAGCGCCAACGUCCUCAACUUCCAAUGCAUCCCACCACAUGAUGAUGCCUGAAGAGCCUUGGUUUUUUG, the “polymerase ribozyme fitness (log ratio)” value was 0.828.

Consider GACCAAGAUGCCCUCAGAGCUCGAGAACAUCUUCGGAUGCAGAGGAGGCAGGCUUAGGUGGCGCGAUAGCGCCAACGUCCUCAACCUCCAAUGCAUCCCACCACAUGAUGAUGCCUGAAGAGCUUUGGAUUUUUG, for which the “polymerase ribozyme fitness (log ratio)” value is -0.245.

As for GACCAAGCUGCCCUCAGAGCUCGAGAACAUCUUCGGAUGCAGAGGGGGCAGGCUUCGGUGGCGCGAUAGCGCCAACGUCCUCAACCUCCAAUGCAUCCCACCACAUGAUGAUGCCUGAAGAGCAUUGGUUUUUUG, the “polymerase ribozyme fitness (log ratio)” value came to 1.74.

As for GACCAAGCUGCCCUCAGAGCUCGAGAACAUCUUCGGAUGCAGGGGAUGCAGGCUUCGGUGACGCGAUAGCGCCAACGUCCUCAACCUCCAAUGCAACCCACCACAUGAUGAUGCCUGAAGAGCCUUGGUUUUUUG, the “polymerase ribozyme fitness (log ratio)” value is -2.6.

GACCAAGCUGCCCUCAGAGCUCGAGAACAUCUUCGGAUGCGGAGGAGGCAGGAUUCGGUGUCGCGAUAGCGCCAACGUUCUCAACCUCCUAUGCAUCCCACCACAUGAUGCUGCCUGAAGAGCCUUGGUUUUUUG: the “polymerase ribozyme fitness (log ratio)” value is -3.04.

Regarding GACCAAGCUGCCCUCAGGGCUCGAGAACAUCUUCGGAUGCAGAGGAGGCAGGCUUCGGUGGUGCGAUAGCGCCAACGUCCUCAACCUCCAAUGCAUCCCACCACAUGAUGAUGCCUGAACAGCCAUGGUUUUUUG, the “polymerase ribozyme fitness (log ratio)” value was -2.15.

On to GACCAAGCUGCCCUCAGUGCUCGAGAACAUCUUCGGAUGCAGAGGAGGCAGGCUUCGGUGGCGCGAUAGCGCCAACGUCCUCAACCUCCAAUGCAUCCCAUCACAUGAUGAUGCCUGAAGAGCCUUGGUUUUUUG, for which the “polymerase ribozyme fitness (log ratio)” value is -1.59.

Turning to GACCAACCUGCCCCCAGAGCUCGAGAACGUCUUCGGAUGCAGAGGAGGCAGGCUUCGGUGGCGCGAUAGCCCCAACGUCCUCAACCUCCAAUGCAUCCCACCACAUGAUGAUUCCUGAAGAGCCUUGGUUUUUUG, the “polymerase ribozyme fitness (log ratio)” value was -4.94.

With GACCAAGCUGCCCUCAGAGCUCGAGAACAUCUUCGGAUGCUGAGGAGGCAGGCUUCGGUGGCGCGAUAGCGCCAACGUCCUCAACCUCCAAUGCAUCCCACCACAUGAUGAUGCCUGAAGAGCCUUGGUUUUUUG, the “polymerase ribozyme fitness (log ratio)” value is -0.368.

With GACCAACCUGCCCUCAGAGCUCGAGAACAUCUUCGGAUACAGAGGAGGCAGGCUUCGGUGGCGCGAUAGCGCCAACGUCCUCAACCUCCAAUGCAUCCCACCACAUGAUGAUGCCUGAAGAGCCUUGGUUUUUUG, the “polymerase ribozyme fitness (log ratio)” value is -0.619.
